As a reminder, the Kd is a measure of binding affinity in units of concentration.

From PMC8465852, “The HMGB Protein KlIxr1, a DNA Binding Regulator of Kluyveromyces lactis Gene Expression Involved in Oxidative Metabolism, Growth, and dNTP Synthesis” come the findings set out here.

Data set [1] concerns the target T1, KlIxr1 (Kluyveromyces lactis, UniProt Q6CMQ4 1-464).
T1 sequence: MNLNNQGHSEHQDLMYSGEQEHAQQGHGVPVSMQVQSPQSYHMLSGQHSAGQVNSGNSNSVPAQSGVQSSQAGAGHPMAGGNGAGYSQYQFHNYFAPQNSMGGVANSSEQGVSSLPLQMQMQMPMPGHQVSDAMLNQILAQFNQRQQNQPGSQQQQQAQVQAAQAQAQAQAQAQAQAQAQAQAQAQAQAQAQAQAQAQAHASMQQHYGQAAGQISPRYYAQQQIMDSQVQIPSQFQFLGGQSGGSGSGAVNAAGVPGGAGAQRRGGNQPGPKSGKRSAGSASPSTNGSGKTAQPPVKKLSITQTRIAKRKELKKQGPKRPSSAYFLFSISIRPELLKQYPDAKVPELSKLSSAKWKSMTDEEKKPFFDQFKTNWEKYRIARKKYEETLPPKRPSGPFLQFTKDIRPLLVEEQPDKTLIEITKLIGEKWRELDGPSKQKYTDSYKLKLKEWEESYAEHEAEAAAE
The experiment in a line: fluorescence anisotropy; 100 nM DNA; FA: 10 mM Tris-HCl pH 8.0, 100 mM KCl, 2 mM DTT, 1 mM EDTA, 500 ug/mL BSA, 25 C, 100 nM DNA; EMSA: 4 C 30 min, 500 nM DNA, 1 ug protein, 1 ug calf thymus DNA, buffer by reference. The conditions noted are these: protein: recombinant, tags: N-terminal 6xHis, blunt.

For data set [2], the target named is T1, KlIxr1. The experiment in a line: EMSA; calf thymus DNA carrier; two retarded bands; FA: 10 mM Tris-HCl pH 8.0, 100 mM KCl, 2 mM DTT, 1 mM EDTA, 500 ug/mL BSA, 25 C, 100 nM DNA; EMSA: 4 C 30 min, 500 nM DNA, 1 ug protein, 1 ug calf thymus DNA, buffer by reference. To be noted: protein: recombinant; tags: N-terminal 6xHis; label: 5'-FAM on forward strand (AJVV009f*); blunt.

B1: HEM13B (dsDNA)
DNA 1: TGGCCCAGCCTCTATTTCTCTCGTACCGGT
DNA 2: ACCGGTACGAGAGAAATAGAGGCTGGGCCA
With B1, in the data set with KlIxr1 [1] (label: 5'-FAM on forward strand (AJVV050f*)), the Kd was 155 ± 38.6 nM.

B2: HEM13A (dsDNA)
DNA 1: ATCTTGAATGTATGTTGGTTCAGCCTCTCC
DNA 2: GGAGAGGCTGAACCAACATACATTCAAGAT
For B2, the Kd in the data set with KlIxr1 [1] (label: 5'-FAM on forward strand (AJVV045f*)) was 15.6 ± 4.27 nM.

B3: KlHEM13 promoter 40-mer (both sites) (dsDNA)
DNA 1: ATCTTGAATGTATGTTGGTTCAGCCTCTATTTCTCTCGTA
DNA 2: TACGAGAGAAATAGAGGCTGAACCAACATACATTCAAGAT
On to B3, for which the binding result in the data set with KlIxr1 [2] was “binds”.

B4: KlYCF1 promoter (dsDNA)
DNA 1: TTAATTGCAATTGTTACTGTTGATTTTAAA
DNA 2: TTTAAAATCAACAGTAACAATTGCAATTAA
With B4, the Kd with KlIxr1 [1] (label: 5'-FAM on forward strand (AJVV029f*)) amounted to 105 ± 18.9 nM.
